From patent US20220163515, “PUMILIO DOMAIN-BASED MODULAR PROTEIN ARCHITECTURE FOR RNA BINDING” (Massachusetts Institute of Technology, published 2022) come the findings set out here.

Data set [1] deals with T1, PumHD wild-type (Pumilio homology domain) (Homo sapiens, UniProt Q14671 Q14671:828-1176). In words: FP; 25 mM Tris-HCl pH 7.5, 0.5 mM EDTA, 50 mM KCl, 0.1 mg/mL BSA; active-fraction corrected. The conditions noted are these: tags: 6xHis (pBadHisB vector); label: 5'-FAM. As to the method: (§1) Methods Enzymol 469:287-302; Heyduk T, Ma Y, Tang H, Ebright R H (1996) Fluorescence anisotropy: rapid, quantitative assay for protein-DNA and protein-protein interaction. Methods Enzymol 274:492-503; Dinman J (2013) Biophysical approaches to translational control of gene expression. 317].
T1 sequence (Q14671 828-1176, one chain of several): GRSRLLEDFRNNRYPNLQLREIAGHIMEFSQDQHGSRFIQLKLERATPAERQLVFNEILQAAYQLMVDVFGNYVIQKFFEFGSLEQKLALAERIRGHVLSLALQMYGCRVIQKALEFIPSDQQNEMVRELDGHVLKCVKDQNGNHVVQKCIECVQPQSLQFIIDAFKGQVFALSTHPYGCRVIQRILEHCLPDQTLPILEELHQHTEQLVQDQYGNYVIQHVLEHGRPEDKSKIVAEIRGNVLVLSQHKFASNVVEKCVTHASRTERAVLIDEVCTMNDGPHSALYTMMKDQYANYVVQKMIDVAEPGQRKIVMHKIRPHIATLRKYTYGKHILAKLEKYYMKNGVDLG
(§2) The cognate and non-cognate RNA targets for the purified Pum variant proteins were synthesized with 5′-labeled FAM, 6-carboxyfluorescein (IDT). […] 50 nM cognate RNA was mixed with increasing concentration of the protein (measured by NanoDrop, Thermo Scientific) in the binding buffer (25 mM Tris-HCl pH 7.5, 0.5 mM EDTA, 50 mM KCl, 0.1 mg/mL BSA). The 100 μL samples were assayed, in duplicates, for fluorescence anisotropy using a Cary Eclipse fluorimeter (Varian) with Manual Polarizer Accessory (Varian). […] Fluorescence anisotropy was calculated as a unitless ratio defined as R═(I₌−I_{⊥})/(I₌+2I_{⊥}), where I is the emission intensity parallel (I₌) or perpendicular (I_{⊥}) to the direction of polarization of the excitation source. […] The Kd of each protein to its cognate and non-cognate RNA was subsequently measured, using the protein concentration corrected to the active protein fraction, with constant concentration of RNA. The Kd was calculated from a non-linear fit in IgorPro 6.22 of the anisotropy vs. protein concentration plot to the equation [Qu X, Chaires J B (2000) Analysis of drug-DNA binding data.

Data set [2] concerns the target T1, PumHD wild-type (Pumilio homology …). In words: FP; no detectable binding, fit did not converge. To be noted: tags: 6xHis (pBadHisB vector); label: 5'-FAM. As to the method: as §1, §2

B1: wild-type NRE cognate (ssRNA)
RNA: CCAGAAUUGUAUAUAUUCG
For the molecule B1, binding in data set [1] was characterised by a dissociation constant (Kd) of 0.088 nM.

B2: wild-type noncognate (ssRNA)
RNA: ACAUAUAU
Take B2: the binding result in data set [2] was “no binding”.
